Reference: paper doi:10.1101/2023.10.05.560930 (bioRxiv, 2023)
Where no end group is shown, it is not given here. Cy5 = Cy5 fluorophore

Columns and labels:
Test in all cases: fluorescence polarisation
[1] = molecular target: […]1(1-117) (human, UniProt Q9H0R8 1-117)
[2] = molecular target: LC3C(1-126) (human, UniProt Q9BXW4 1-126)
[3] = molecular target: LC3A(1-120) (human, UniProt Q9H492 1-120)
[4] = molecular target: GABARAP(1-116) (human, UniProt O95166 1-116)
[5] = molecular target: […]2(1-117) (human, UniProt P60520 1-117)
[6] = molecular target: LC3B(1-120) (human, UniProt Q9GZQ8 1-120)

Measured: binding result

B1: p62-LIR peptide linked to a Cy5 fluorophore (peptide)
peptide: SDNSSGGDDDWTHLSSK-Cy5
binds: [1] | [2] | [3] | [4] | [5] | [6]
